Data taken from patent US10369187B2, “Peptide regulators of JNK family kinases” (Vanderbilt University, priority 2017, dated 2019).

Tests used:
JNK3 [1] = target: T1, JNK3 (Homo sapiens, UniProt P53779); experiment: MBP pull-down of purified JNK3; assay type: binding; details: MBP-fusions, compared with T1A
Experimental: FIG. 5. […] Residues that differ between T1A and B1A are shown in magenta. b, c, d) Pull-down of purified JNK3 (b), MKK4 (c), and MKK7 (d) by MBP (negative control), MBP-arrestin-3 (positive control), MBP-T1A, and MBP-B1A, was performed, as described in Methods. Lower panels, Coomassie gels of loaded MBP-fusions; middle panels, Western blots of retained JNK3 (b), MKK4 (c), and MKK7 (d); upper panels, quantification of Western blots from 3-4 independent experiments. […] T1A sequence shown is SEQ ID NO:1. B1A sequence shown is SEQ ID NO:6.
To test the specificity of T1A action, its ability to bind purified MKK4, MKK7, and JNK3 was compared with that of B1A, a homologous N-terminal peptide from closely related arrestin-2, which differs from T1A only in four positions (FIG. 5). […] To test whether this difference in binding translates into differential activity in cells, the ability of YFP-T1A and YFP-B1A to facilitate JNK3 activation were compared in cells over-expressing ASK1, using YFP-arrestin-3 and YFP as positive and negative controls, respectively.
To make MBP-fusions containing arrestin-2/3 elements, the cDNAs encoding arrestin fragments were subcloned into pMal-p2T (generous gift from Dr. Keiji Tanaka, Tokyo Institute of Medical Science) between Eco RI and Xho I sites in frame with MBP, as described^23. […] Eluates were analyzed by SDS-PAGE and Western blotting.

JNK3 [2] = target: T1, JNK3; details: earlier work, reference 23; cited from earlier work

T1 sequence (P53779 whole entry, species assumed, the tested form may be a part): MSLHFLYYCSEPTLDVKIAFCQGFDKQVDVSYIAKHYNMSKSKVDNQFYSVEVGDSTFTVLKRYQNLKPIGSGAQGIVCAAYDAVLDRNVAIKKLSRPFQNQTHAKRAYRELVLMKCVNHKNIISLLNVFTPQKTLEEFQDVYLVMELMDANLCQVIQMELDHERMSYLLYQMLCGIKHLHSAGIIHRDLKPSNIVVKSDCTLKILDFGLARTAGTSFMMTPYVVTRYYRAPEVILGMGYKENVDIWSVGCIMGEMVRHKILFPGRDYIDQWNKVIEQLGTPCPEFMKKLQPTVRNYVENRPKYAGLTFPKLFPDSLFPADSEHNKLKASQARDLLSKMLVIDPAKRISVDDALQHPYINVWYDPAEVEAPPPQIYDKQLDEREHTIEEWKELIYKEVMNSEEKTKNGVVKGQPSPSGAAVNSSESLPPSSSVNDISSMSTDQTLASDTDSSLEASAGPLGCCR

| Substance | binding of JNK3 in MBP pull-down (JNK3 [1]) | JNK3 binding element of arrestin-3 (JNK3 [2]) |
| --- | --- | --- |
| MGDK-GTRVFKKASPNGKLTVYLGK (MGDKGTRVFKKASPNGKLTVYLGK; N-terminal MGDK; bovine) [B1A, homologous N-terminal peptide from arrestin-2, negative control] | less robust interaction |  |
| MGEKPGTRVFKKSSPNCKLTVYLGK (bovine) [T1A, first 25 residues of arrestin-3] |  | key interaction site |
